Numbering of substitutions follows the chain as printed.

The target in assay [1] is T1, extracellular domain of human CD73 protein (CD73-ECD), C-terminus polyhistidine-tagged (UniProt P21589 27-547).
T1 chain: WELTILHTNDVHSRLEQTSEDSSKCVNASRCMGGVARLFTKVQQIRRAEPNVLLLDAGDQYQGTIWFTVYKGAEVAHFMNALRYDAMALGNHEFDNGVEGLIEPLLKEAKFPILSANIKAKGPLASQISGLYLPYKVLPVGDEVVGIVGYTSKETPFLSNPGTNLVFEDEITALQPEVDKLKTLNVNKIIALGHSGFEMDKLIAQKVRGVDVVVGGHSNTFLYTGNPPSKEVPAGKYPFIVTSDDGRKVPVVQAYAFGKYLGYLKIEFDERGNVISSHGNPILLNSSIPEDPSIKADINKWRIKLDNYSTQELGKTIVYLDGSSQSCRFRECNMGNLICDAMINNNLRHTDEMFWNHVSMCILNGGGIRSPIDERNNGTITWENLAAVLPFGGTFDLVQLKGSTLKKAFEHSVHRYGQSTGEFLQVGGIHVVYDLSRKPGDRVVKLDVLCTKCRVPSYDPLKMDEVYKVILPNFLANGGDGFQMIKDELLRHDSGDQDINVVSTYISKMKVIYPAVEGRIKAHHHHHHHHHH
Put plainly: ELISA. A general note: An ELISA detects its analyte on a solid surface through an enzyme-linked reagent.

The target in assay [2] is T1, extracellular domain of human CD73 …. Nature of the assay: enzyme inhibition; right table.
The target of assay [3] is T2, Carbon-terminal polyhistidine-labeled recombinant cynomolgus monkey CD73 enzyme (cynomolgus monkey, UniProt A0A2K5V5U7 1-547).
T2 chain: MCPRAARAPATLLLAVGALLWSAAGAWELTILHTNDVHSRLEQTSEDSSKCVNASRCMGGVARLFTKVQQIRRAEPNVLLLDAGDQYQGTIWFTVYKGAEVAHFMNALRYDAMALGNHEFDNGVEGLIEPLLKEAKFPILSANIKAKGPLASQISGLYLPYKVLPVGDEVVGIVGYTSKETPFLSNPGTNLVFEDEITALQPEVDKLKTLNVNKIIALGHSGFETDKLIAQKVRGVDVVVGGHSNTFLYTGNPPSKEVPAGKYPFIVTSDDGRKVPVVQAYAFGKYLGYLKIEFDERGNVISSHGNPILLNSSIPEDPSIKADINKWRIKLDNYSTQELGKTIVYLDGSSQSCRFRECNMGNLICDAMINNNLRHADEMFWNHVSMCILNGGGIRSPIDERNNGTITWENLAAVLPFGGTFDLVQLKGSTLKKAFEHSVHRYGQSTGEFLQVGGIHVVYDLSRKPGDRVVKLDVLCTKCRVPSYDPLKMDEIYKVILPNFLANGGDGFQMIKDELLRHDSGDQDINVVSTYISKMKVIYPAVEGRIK
Nature of the assay: enzyme inhibition; right table.

In assay [4] the target is T3, CD73 on the surface of human tumor cells (human, UniProt P21589 27-549).
T3 chain: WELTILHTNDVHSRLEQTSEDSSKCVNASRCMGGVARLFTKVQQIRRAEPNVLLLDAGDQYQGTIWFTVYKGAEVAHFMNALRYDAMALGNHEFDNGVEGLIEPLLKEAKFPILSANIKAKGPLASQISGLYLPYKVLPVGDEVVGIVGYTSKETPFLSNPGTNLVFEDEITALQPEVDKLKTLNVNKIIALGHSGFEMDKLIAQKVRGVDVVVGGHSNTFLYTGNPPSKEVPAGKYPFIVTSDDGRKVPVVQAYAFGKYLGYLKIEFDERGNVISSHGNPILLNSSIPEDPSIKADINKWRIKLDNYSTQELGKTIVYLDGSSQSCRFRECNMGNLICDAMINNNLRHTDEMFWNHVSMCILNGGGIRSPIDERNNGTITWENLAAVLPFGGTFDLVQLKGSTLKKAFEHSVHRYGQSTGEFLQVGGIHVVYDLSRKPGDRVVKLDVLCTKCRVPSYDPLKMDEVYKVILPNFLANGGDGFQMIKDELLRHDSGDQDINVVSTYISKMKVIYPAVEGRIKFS
Put plainly: FACS; NCI-H1299 cells, right table. For orientation: A flow cytometer gives signals particle by particle.

Assay [5] concerns the target T3, CD73 on the surface of human tumor cells. Nature of the assay: FACS; MDA-MB-231 cells, right table.
The target is the same in assay [6]. Put plainly: inhibition of cell-surface CD73 enzyme activity; right panel.
Assay [7] has as its target T1, extracellular domain of human CD73 …. Put plainly: enzyme inhibition; left table.
Assay [8] deals with T2, Carbon-terminal polyhistidine-labeled …. Nature of the assay: enzyme inhibition; left table.
Assay [9] deals with T3, CD73 on the surface of human tumor cells. Put plainly: FACS; NCI-H1299 cells, left table.
For assay [10] the target is unchanged. Put plainly: FACS; MDA-MB-231 cells, left table.
Assay [11] shares this target. Put plainly: inhibition of cell-surface CD73 enzyme activity; left panel.

B1: Hu002c-16 (antibody, V domains shown)
VH: QVQLVQSGAEVKKPGASVKVSCKASGYTLTSYWMHWVKKAPGQGLEWIGEINPSQGRSNYNEKFKSKVTLTVDRSTSTVYMELSSLRSEDTAVYYCARRGVSGNYFDYWGQGTLVTVSS
VL: DIQMTQSPSSLSASVGDRVTITCKASQDINTYLSWFQQKPGKSPKSLIYRSNILVSGVPSRFSGSGSGQDYTLTISSLQPEDFAIYYCLQYDEFPYTFGGGTKLEI
By EC50 is commonly meant the concentration giving half of the maximal effect. What is called IC50 is the concentration that inhibits the measured activity by half. With B1, the 50% effective concentration (EC50) in [1] came out at 0.099 nM; in assay [4], 0.86 nM; in assay [5] it was 0.632 nM. Further, the IC50 in [2] came out at 0.068 nM; in [3] it was 0.072 nM; in assay [6], 0.327 nM.

B2: Hu002c-3 (antibody, V domains shown)
VH: B1 VH with K38R, K39Q, I48M, K67R, L70M, V72R, R74T
VL: DIQMTQSPSSLSASVGDRVTITCKASQDINTYLSWFQQKPGKSPKSLIYRSNILVSGVPSRFSGSGSGQDYTLTISSLQPEDFATYYCLQYDEFPYTFGGGTKLEIK
In the case of B2, the half-maximal effective concentration (EC50) in assay [1] was 0.089 nM; in assay [9], 0.902 nM; in [10] it was 0.743 nM. In addition, the IC50 in assay [7] stood at 0.036 nM; in [8], 0.046 nM; in [11], 0.535 nM.

B3: Hu002c-15 (antibody, V domains shown)
VH: B1 VH
VL: B2 VL
In the case of B3, the half-maximal effective concentration (EC50) came out at 0.104 nM in [1], 0.804 nM in [4] and 0.717 nM in assay [5]. Besides, the concentration for half-maximal inhibition (IC50) is 0.075 nM in assay [2], 0.074 nM in assay [3] and 0.591 nM in assay [6].

B4: Hu002c-2 (antibody, V domains shown)
VH: B1 VH with K38R, K39Q, I48M, K67R, L70M, V72R, R74T
VL: B2 VL with S43A, G100Q
Regarding B4, the EC50 amounted to 0.131 nM in assay [1], 0.874 nM in [9] and 0.666 nM in [10]. Further, the results for the half-maximal inhibitory concentration (IC50) in [7], in [8] and in assay [11] were 0.042 nM, 0.043 nM and 0.478 nM, respectively.

B5: Hu002c-4 (antibody, V domains shown)
VH: B1 VH with K38R, K39Q, I48M, K67R, L70M, V72R, R74T
VL: B1 VL
Consider B5, for which the figures for the EC50 in assay [1], in [9] and in assay [10] were 0.106 nM, 0.873 nM and 0.696 nM, respectively. Moreover, the half-inhibitory concentration (IC50) in [7] turned out to be 0.049 nM; in assay [8] it was 0.047 nM; in assay [11], 0.33 nM.

B6: Hu002c-12 (antibody, V domains shown)
VH: B1 VH with K38R, K39Q
VL: B1 VL
For B6, the EC50 in assay [1] was 0.083 nM; in assay [4], 0.82 nM; in assay [5], 0.715 nM. In addition, the 50% inhibitory concentration (IC50) in assay [2] is 0.057 nM; in [3], 0.058 nM; in assay [6], 0.498 nM.

B7: Hu002c-8 (antibody, V domains shown)
VH: B1 VH with K38R, K39Q, K67R
VL: B1 VL
As to B7, the values for the concentration giving a half-maximal response (EC50) in [1], in [9] and in [10] were 0.107 nM, 0.91 nM and 0.662 nM, respectively. For the same molecule, the values for the half-inhibitory concentration (IC50) in assay [7], in assay [8] and in assay [11] were 0.025 nM, 0.041 nM and 0.223 nM, respectively.

B8: Hu002c-10 (antibody, V domains shown)
VH: B1 VH with K38R, K39Q
VL: B2 VL with S43A, G100Q
For B8, the EC50 in assay [1] worked out at 0.093 nM; in assay [4], 0.758 nM; in [5], 0.702 nM. In addition, the half-maximal inhibitory concentration (IC50) in assay [2] was 0.059 nM; in assay [3] it was 0.059 nM; in assay [6], 0.441 nM.

B9: Hu002c-6 (antibody, V domains shown)
VH: B1 VH with K38R, K39Q, K67R
VL: B2 VL with S43A, G100Q
On to B9, for which the values for the EC50 in [1], in [9] and in assay [10] were 0.091 nM, 0.836 nM and 0.69 nM, respectively. The IC50 in assay [7] came out at 0.064 nM; in assay [8] it was 0.055 nM; in [11], 0.41 nM.

B10: Hu002c-7 (antibody, V domains shown)
VH: B1 VH with K38R, K39Q, K67R
VL: B2 VL
On to B10, for which the EC50 turned out to be 0.098 nM in assay [1], 0.829 nM in [9] and 0.659 nM in assay [10]. The IC50 in [7] was 0.028 nM; in assay [8] it was 0.052 nM; in assay [11], 0.279 nM.

B11: Hu002c-14 (antibody, V domains shown)
VH: B1 VH
VL: B2 VL with S43A, G100Q
On to B11, for which the EC50 in [1] is 0.101 nM; in assay [4] it was 0.822 nM; in [5], 0.642 nM. Besides, the half-inhibitory concentration (IC50) came out at 0.058 nM in assay [2], 0.056 nM in assay [3] and 0.437 nM in assay [6].

B12: Hu001c-15 (antibody, V domains shown)
VH: QVQLVQSGAEVKKPGASVKVSCKTSGYTFTNYYIYWVRQAPGQRLEWMGWIYPGNLNIKYNEKFKGRVTITADTSASTAYMELSSLRSEDTAVYYCARDDNYAWFAYWGQGTLVTVSS
VL: DIQMTQSPSSLSASVGDRVTITCKASQDVSTAVAWYQQKPGKSPKLLIYWTNTRHTGVPSRFSGSGSGTDHTLTISSLQPEDFATYYCQQHYSTPFTFGQGTKLEIK
Molecule B12 returned an EC50 in assay [1] of 0.115 nM. In addition, the IC50 in assay [7] was 0.04 nM; in assay [8], 0.1 nM; in assay [2], 0.02 nM; in [3] it was 0.05 nM.

Source of the values: patent US20210024646A1 (published 2021).
